Substitutions are numbered along the chain they refer to.
What was measured:
[1] = target: T1, Sfc1 186-283 (winged helix, lacks WHI) (Schizosaccharomyces pombe, UniProt O14229 186-283); assay: filter binding; conditions: Buffer D: 20 mM Tris-HCl pH 7.5, 200 mM KCl, 2 mM MgCl2, 10 mM DTT, 25 C (EMSA and nitrocellulose filter binding)
T1 sequence: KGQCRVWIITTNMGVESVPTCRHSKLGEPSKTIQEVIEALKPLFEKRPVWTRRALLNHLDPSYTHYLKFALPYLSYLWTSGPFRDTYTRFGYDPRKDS

Sfc1-DBD = target: T2, Sfc1-DBD (Schizosaccharomyces pombe, UniProt O14229 186-396); assay: unspecified (data not shown); similar affinity to A-box; Buffer D: 20 mM Tris-HCl pH 7.5, 200 mM KCl, 2 mM MgCl2, 10 mM DTT, 25 C (EMSA and nitrocellulose filter binding); conditions: protein: recombinant; tags: N-terminal His-tag, TEV-cleaved; label: 32P; blunt
T2 sequence: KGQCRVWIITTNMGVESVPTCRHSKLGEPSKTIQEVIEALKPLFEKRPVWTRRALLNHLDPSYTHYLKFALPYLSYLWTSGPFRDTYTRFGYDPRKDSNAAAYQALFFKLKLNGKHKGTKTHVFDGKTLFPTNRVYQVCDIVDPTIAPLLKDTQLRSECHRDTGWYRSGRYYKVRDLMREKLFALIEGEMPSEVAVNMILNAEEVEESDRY

[2] = target: T3, Sfc1-DBD (C-terminal DNA-binding domain of Sfc1, residues 186-396), recombinant (Schizosaccharomyces pombe, UniProt O14229 186-396); assay: ITC; 25°C, VP-ITC; 50 mM HEPES pH 7.5, 150 mM NaCl, 2 mM β-mercaptoethanol; 10 µl injections of 200 µM peptide into 2 ml of 10 µM protein; data not shown; conditions: both partners purified
T3 construct: Sfc1, Schizosaccharomyces pombe, residues 186-396 (winged-helix domain 186-283 and WHI domain 284-396); The crystal structure (4BJI) used selenomethionine-substituted protein; Purification details are in the Supplemental Methods; source: E. coli, purified (Ni-NTA, TEV, ion exchange, no gel filtration); not shown: His-tag, N-terminal, cleaved
T3 sequence (looked up): T2 sequence

[3] = target: T4, Sfc1 1-396;Sfc7 full length (Schizosaccharomyces …, UniProt O14229;A6X980 1-396;1-120, |); assay: filter binding; Buffer D: 20 mM Tris-HCl pH 7.5, 200 mM KCl, 2 mM MgCl2, 10 mM DTT, 25 C (EMSA and nitrocellulose filter binding); conditions: protein: recombinant;recombinant; tags: N-terminal His-tag, TEV-cleaved;; copies: 1;1; label: 32P; blunt
T4 sequence 1: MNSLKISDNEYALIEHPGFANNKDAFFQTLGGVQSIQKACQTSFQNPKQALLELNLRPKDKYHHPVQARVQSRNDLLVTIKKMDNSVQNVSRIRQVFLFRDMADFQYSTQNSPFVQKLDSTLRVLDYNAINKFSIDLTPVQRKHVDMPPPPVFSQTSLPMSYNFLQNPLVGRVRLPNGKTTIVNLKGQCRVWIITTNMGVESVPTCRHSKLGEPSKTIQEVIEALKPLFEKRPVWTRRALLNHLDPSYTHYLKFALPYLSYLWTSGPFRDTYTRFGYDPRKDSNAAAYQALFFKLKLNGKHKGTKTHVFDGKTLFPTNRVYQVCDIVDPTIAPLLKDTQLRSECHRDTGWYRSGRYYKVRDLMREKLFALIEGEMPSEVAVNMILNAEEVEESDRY
T4 sequence 2: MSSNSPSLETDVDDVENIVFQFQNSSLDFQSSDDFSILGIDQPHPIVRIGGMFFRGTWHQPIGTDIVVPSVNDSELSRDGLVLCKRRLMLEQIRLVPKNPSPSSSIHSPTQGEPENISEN

Sfc1 186-456 = target: T5, Sfc1 186-456 (Schizosaccharomyces pombe, UniProt O14229 186-456); assay: as above; conditions: protein: recombinant; tags: N-terminal His-tag, TEV-cleaved; label: 32P; blunt
T5 sequence: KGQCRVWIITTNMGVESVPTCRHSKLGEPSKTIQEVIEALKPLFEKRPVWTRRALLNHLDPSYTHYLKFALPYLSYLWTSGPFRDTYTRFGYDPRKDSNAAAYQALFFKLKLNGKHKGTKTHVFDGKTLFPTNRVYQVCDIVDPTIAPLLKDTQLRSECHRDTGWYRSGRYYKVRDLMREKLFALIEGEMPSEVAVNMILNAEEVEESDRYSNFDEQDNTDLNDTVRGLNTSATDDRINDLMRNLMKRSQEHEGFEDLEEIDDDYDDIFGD

Sfc1 111-456 = target: T6, Sfc1 111-456 (Schizosaccharomyces pombe, UniProt O14229 111-456); assay: as above; conditions: protein: recombinant; tags: N-terminal His-tag, TEV-cleaved; label: 32P; blunt
T6 sequence: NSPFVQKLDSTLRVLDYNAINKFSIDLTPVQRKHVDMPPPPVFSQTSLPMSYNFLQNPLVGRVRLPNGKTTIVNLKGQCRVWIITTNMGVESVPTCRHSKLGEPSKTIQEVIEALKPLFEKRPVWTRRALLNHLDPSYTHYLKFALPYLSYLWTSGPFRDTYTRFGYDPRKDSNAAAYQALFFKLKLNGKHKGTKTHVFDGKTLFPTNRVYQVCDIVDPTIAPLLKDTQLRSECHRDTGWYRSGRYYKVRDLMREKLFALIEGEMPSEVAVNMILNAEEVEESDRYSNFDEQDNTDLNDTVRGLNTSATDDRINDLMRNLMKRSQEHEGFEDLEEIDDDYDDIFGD

[4] = target: T7, Sfc1 full length;Sfc7 full length (Schizosaccharomyces …, UniProt O14229;A6X980 1-456;1-120, |); assay: as above; conditions: protein: recombinant;recombinant; tags: N-terminal His-tag, TEV-cleaved;; copies: 1;1; label: 32P; blunt
T7 sequence 1: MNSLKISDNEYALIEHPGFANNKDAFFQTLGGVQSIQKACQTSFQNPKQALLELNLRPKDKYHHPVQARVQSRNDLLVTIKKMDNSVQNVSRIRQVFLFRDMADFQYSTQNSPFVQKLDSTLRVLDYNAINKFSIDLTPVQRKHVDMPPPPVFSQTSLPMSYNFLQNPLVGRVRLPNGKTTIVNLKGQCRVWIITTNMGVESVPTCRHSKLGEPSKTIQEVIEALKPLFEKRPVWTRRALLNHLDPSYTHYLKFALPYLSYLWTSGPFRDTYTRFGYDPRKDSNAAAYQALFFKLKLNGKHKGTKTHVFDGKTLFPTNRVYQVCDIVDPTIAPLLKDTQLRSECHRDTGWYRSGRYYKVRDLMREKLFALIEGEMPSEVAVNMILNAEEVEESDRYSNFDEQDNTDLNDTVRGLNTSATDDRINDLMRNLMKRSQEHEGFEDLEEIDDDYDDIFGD
T7 sequence 2: T4 sequence 2

Sfc1-DBD K294A = target: T8, Sfc1-DBD K294A (Schizosaccharomyces pombe, UniProt O14229 186-396, K294A); assay: as above; conditions: protein: recombinant; tags: N-terminal His-tag, TEV-cleaved; label: 32P; blunt
T8 sequence: T2 sequence with K109A

Sfc1-DBD R269A = target: T9, Sfc1-DBD R269A (Schizosaccharomyces pombe, UniProt O14229 186-396, R269A); assay: as above; conditions: protein: recombinant; tags: N-terminal His-tag, TEV-cleaved; label: 32P; blunt
T9 sequence: T2 sequence with R84A

Sfc1-DBD R237A = target: T10, Sfc1-DBD R237A (Schizosaccharomyces pombe, UniProt O14229 186-396, R237A); assay: as above; conditions: protein: recombinant; tags: N-terminal His-tag, TEV-cleaved; label: 32P; blunt
T10 sequence: T2 sequence with R52A

Sfc1-DBD R269A/K294A = target: T11, Sfc1-DBD R269A/K294A (Schizosaccharomyces pombe, UniProt O14229 186-396, R269A;K294A); assay: as above; conditions: protein: recombinant; tags: N-terminal His-tag, TEV-cleaved; label: 32P; blunt
T11 sequence: T2 sequence with R84A, K109A

[5] = target: T1, Sfc1 186-283 (winged helix, lacks WHI); assay: as above; conditions: protein: recombinant; tags: N-terminal His-tag, TEV-cleaved; label: 32P; blunt
[6] = target: T12, Sfc7 (S. pombe TFIIIC τA subunit), full length (Schizosaccharomyces pombe, UniProt A6X980 1-120); assay: ion-exchange chromatography; fragments from limited proteolysis of the purified Sfc1/Sfc7 heterodimer, separated by ion-exchange chromatography; conditions: both partners purified
T12 construct: Sfc7, Schizosaccharomyces pombe, full length (Mr = 13.3 kDa); cloned into pCDF-MCN; PDB 4BJJ holds residues 1-101; also called orthologue of S. cerevisiae τ55 (Tfc7) and human TFIIIC35; source: E. coli BL21 (DE3) RIPL, co-expressed with Sfc1, purified (Ni-NTA, TEV, second Ni-NTA, Mono Q, Superdex S200)
T12 sequence (looked up): T4 sequence 2

For A-box non-coding ssDNA (nc-ss), the binding signal (fold lower affinity than Sfc1-DBD) [1] was 10.

B1: B-box dsDNA (25 bp) (dsDNA)
DNA 1: CGACCCGGGTTCGATTCCCGGCCAA
DNA 2: TTGGCCGGGAATCGAACCCGGGTCG
B1: binds (Sfc1-DBD).

B2: Sfc1_(435-456) synthetic peptide (22mer acidic Sfc1 tail peptide) (peptide)
peptide: QEHEGFEDLEEIDDDYDDIFGD
notes: Sfc1, Schizosaccharomyces pombe, the 22 C-terminal residues (435-456), pI 3.5; The methods call it Sfc1_(434-456); also called Sfc1_(434-456) peptide (methods); acidic tail peptide; source: synthetic peptide
With B2 the Kd [2] was 3000 ± 800 nM.

B3: A-box dsDNA (25 bp) (dsDNA)
DNA 1: CGAAGTGGCCGAGTGGTCTATGGCG
DNA 2: CGCCATAGACCACTCGGCCACTTCG
B3: binds [3]; no binding (Sfc1 186-456); no binding (Sfc1 111-456). For the same molecule, the binding result [4] was “no binding”, the binding signal (Sfc1-DBD K294A) was > 2 fold lower affinity than Sfc1-DBD and the binding signal (Sfc1-DBD R269A) was > 2 fold lower affinity than Sfc1-DBD. For the same molecule, the binding signal (Sfc1-DBD R237A) was > 2 fold lower affinity than Sfc1-DBD, the binding signal (Sfc1-DBD R269A/K294A) was > 2 fold lower affinity than Sfc1-DBD and the binding signal [5] was ~10 fold lower affinity than Sfc1-DBD.

B4: Sfc1-NT, smaller protease-resistant Sfc1 fragment (residues 1-107) (domain or fragment, Schizosaccharomyces pombe, UniProt O14229 1-107, looked up)
chain: MNSLKISDNEYALIEHPGFANNKDAFFQTLGGVQSIQKACQTSFQNPKQALLELNLRPKDKYHHPVQARVQSRNDLLVTIKKMDNSVQNVSRIRQVFLFRDMADFQY
notes: Sfc1, Schizosaccharomyces pombe, residues 1-107, assigned by electrospray mass spectrometry and peptide mass fingerprinting; also called smaller Sfc1 fragment; source: limited proteolysis of the purified Sfc1/Sfc7 heterodimer made in E. coli; not shown: His-tag, N-terminal, cleaved
B4: binds [6].

Source: paper PMC3799434, “RNA polymerase III-specific general transcription factor IIIC contains a heterodimer resembling TFIIF Rap30/Rap74” (Nucleic Acids Research, 2013)
